From publication PMC7330101

Target: SUN2 (human (endogenous in HUVECs)) (UniProt Q9UH99)
Test: proximity ligation; Duolink in situ PLA on fixed, saponin-permeabilised HUVECs with primary antibodies against SUN2 and Nesprin1; cells exposed to PS (12 ± 4 dynes/cm^2) or OS (0.5 ± 4 dynes/cm^2) for 6 h

Chain of UniProt Q9UH99 (Q9UH99 whole entry): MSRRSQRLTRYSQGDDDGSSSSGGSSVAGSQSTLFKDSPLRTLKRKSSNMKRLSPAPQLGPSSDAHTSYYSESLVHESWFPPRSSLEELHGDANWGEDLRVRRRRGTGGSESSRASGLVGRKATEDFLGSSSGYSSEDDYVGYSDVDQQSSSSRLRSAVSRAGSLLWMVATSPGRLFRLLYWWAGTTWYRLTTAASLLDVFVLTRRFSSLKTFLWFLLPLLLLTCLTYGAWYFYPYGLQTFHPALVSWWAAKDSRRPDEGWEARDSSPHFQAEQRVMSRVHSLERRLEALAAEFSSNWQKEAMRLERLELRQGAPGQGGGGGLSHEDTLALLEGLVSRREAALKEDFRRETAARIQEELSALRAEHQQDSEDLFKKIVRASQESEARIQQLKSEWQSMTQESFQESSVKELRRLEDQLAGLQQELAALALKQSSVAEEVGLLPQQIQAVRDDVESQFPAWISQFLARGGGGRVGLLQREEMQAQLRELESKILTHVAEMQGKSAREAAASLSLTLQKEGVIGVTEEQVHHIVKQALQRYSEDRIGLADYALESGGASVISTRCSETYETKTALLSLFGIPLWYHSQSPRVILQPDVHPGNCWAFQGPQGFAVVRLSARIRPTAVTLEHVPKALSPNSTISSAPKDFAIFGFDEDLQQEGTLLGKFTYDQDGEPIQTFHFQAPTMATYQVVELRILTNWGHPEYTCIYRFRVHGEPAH

PLA punctuated signals per cell (cells exposed to OS): 2 per cell
PLA punctuated signals per cell (cells exposed to PS): 7 per cell
Substance: Nesprin1, Q8NF91 1-8797
